Entries after “also recorded” stand apart in the source; their conditions may differ.
Tested on: SH-SY5Y cells
Test: Neurite growth assay using SH-SY5Y cells (test method 1)
Format: cell-based, human
Conditions: FIG. 7A
Description: Test Method 1: Illustration of the Effect of RGM Peptides in the Neurite Growth Assay, Using SH-SY5Y Cells
SH-SY5Y cells are human neuroblastoma cells. Blastomas are embryonic tumors which originate during tissue and organ formation. The origin of the blastoma cells is frequently unknown, since in early embryonic states the differentiation of many cells is still premature; i.e., the blastoma cells are a heterogeneous cell population. The cells of a neuroblastoma, referred to as neuroblasts, originate from the neural crest (structure of the embryonic state) from the autonomous nerve tissue, and are practically arrested in an immature stage. The cells in the present case originated from a clonal subculture of the neuroepitheliomal cell line SK-N-SH which were isolated in 1970 in a bone marrow biopsy of a child with metastases of the neuroblastomas.
Culture Medium for SH-SY5Y Cells (ECACC No. 94030304)
The medium was sterile-filtered using a Nunc 500-mL filter, and was stored in a refrigerator at 4° C. until used. Before use, the medium was heated to 37° C. in a water bath.
SH-SY5Y cells are epithelial, neuron-like cells which slowly adherently grow in a monolayer and never attain a confluence of 100% (maximum 80%). The cell culture was split 1:3 two times per week. Isolation of the cells requires incubation with trypsin for 1-3 minutes in an incubator.
Since this is a population of still immature precursor cells, it is possible to differentiate the cells using retinoic acid, so that a certain percentage of the cells acquire neurite-like extensions. For this purpose the culture was incubated in the medium with 10 μM retinoic acid directly in the culture dish or flask, depending on the test, for 3 days.
Microtiter plates (96-well) (containing collagen I-coated plates) were additionally coated with the hRGM A fragments. After washing two times with PBS the cells were seeded. […] In the quantitative analysis the SH-SY5Y cells grown on hRGM A fragments were compared to SH-SY5Y grown on collagen I alone. The neurite length of the cells was automatically measured and used for the analysis. […]

B1: fragment #786: Fc fusion protein of human RGM A amino acids 47-168 (protein)
chain: PCKILKCNSEFWSATSGSHAPASDDTPEFCAALRSYALCTRRTARTCRGDLAYHSAVHGIEDLMSQHNCSKDGPTSQPRLRTLPPAGDSQERSDSPEICHYEKSFHKHSATPNYTHCGLFGD
modifications: left off: small tags and cut ends; a dimerising Fc or GST
- inhibition of neurite growth: inhibit the neurite growth
- inhibitory activity in neurite growth test compared with 316-386-Fc (listed as 47-168-Fc): much stronger effect; also recorded: significantly higher activity
